For test [1], the target named is rae1l_rat Rae1 (UniProt Q3SWS8).
The target is the same in test [2]. This is another data set of the same source.
For a further test, the target named is rae1_caeel rae-1 (UniProt Q93454).
UniProt Q93454, sequence (Q93454 whole entry): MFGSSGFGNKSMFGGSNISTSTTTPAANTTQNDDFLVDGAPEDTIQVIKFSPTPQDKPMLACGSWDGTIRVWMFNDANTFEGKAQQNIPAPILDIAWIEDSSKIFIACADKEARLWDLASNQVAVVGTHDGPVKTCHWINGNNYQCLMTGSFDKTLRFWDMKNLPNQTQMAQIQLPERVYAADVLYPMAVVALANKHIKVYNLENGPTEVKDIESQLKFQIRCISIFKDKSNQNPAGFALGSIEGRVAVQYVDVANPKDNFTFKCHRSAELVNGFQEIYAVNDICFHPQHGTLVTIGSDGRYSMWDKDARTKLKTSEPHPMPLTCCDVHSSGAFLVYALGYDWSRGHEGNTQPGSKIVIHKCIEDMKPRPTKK

UniProt Q3SWS8, sequence (Q3SWS8 whole entry): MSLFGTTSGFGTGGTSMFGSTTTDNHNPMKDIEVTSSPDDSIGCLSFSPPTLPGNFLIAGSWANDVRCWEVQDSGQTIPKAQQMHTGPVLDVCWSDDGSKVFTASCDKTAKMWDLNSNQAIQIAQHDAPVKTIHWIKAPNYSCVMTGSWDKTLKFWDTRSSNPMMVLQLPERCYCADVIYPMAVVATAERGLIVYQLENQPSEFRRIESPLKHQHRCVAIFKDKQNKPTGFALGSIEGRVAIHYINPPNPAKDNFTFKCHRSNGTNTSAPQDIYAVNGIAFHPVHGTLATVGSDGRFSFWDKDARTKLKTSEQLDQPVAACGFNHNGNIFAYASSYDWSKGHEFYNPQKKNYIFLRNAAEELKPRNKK

As for “E3 ubiquitin-protein ligase rpm-1 (Caenorhabditis elegans), Q17551 V2084A;I2087A;R2088A”, the “effect of a mutation on the interaction” value in the test with rae1l_rat Rae1 [1] was “disrupting interaction strength”; with rae1l_rat Rae1 [2], “decreasing interaction strength”; with rae1_caeel rae-1 it was “disrupting interaction strength”.

As for “E3 ubiquitin-protein ligase rpm-1 (Caenorhabditis elegans), Q17551 R2088A”, the “effect of a mutation on the interaction” value with rae1l_rat Rae1 [2] is on record as “disrupting interaction strength”.

The values are drawn from IntAct's records for PubMed 22357847.
